The labels stand for the following.
B1: Serine/threonine-protein kinase D2 (Homo sapiens), Q9BZL6 (parent)
chain: MATAPSYPAGLPGSPGPGSPPPPGGLELQSPPPLLPQIPAPGSGVSFHIQIGLTREFVLLPAASELAHVKQLACSIVDQKFPECGFYGLYDKILLFKHDPTSANLLQLVRSSGDIQEGDLVEVVLSASATFEDFQIRPHALTVHSYRAPAFCDHCGEMLFGLVRQGLKCDGCGLNYHKRCAFSIPNNCSGARKRRLSSTSLASGHSVRLGTSESLPCTAEELSRSTTELLPRRPPSSSSSSSASSYTGRPIELDKMLLSKVKVPHTFLIHSYTRPTVCQACKKLLKGLFRQGLQCKDCKFNCHKRCATRVPNDCLGEALINGDVPMEEATDFSEADKSALMDESEDSGVIPGSHSENALHASEEEEGEGGKAQSSLGYIPLMRVVQSVRHTTRKSSTTLREGWVVHYSNKDTLRKRHYWRLDCKCITLFQNNTTNRYYKEIPLSEILTVESAQNFSLVPPGTNPHCFEIVTANATYFVGEMPGGTPGGPSGQGAEAARGWETAIRQALMPVILQDAPSAPGHAPHRQASLSISVSNSQIQENVDIATVYQIFPDEVLGSGQFGVVYGGKHRKTGRDVAVKVIDKLRFPTKQESQLRNEVAILQSLRHPGIVNLECMFETPEKVFVVMEKLHGDMLEMILSSEKGRLPERLTKFLITQILVALRHLHFKNIVHCDLKPENVLLASADPFPQVKLCDFGFARIIGEKSFRRSVVGTPAYLAPEVLLNQGYNRSLDMWSVGVIMYVSLSGTFPFNEDEDINDQIQNAAFMYPASPWSHISAGAIDLINNLLQVKMRKRYSVDKSLSHPWLQEYQTWLDLRELEGKMGERYITHESDDARWEQFAAEHPLPGSGLPTDRDLGGACPPQDHDMQGLAERISVL
partner: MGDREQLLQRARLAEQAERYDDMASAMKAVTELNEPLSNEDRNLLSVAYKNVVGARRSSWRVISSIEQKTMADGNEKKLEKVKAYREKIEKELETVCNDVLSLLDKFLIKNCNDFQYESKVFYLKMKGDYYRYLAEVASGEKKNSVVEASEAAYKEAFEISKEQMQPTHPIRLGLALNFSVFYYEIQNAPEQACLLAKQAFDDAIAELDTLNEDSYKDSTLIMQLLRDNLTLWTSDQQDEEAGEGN

The variants in this assay derive from B1. The following applies: with 1433f_human YWHAH.
Turning to S244E;S706E;S710E, the “effect of a mutation on the interaction” value is on record as “disrupting interaction”.
